This passage reports Peptide exchange results from US20220289816A1, “IMMUNOTHERAPY WITH B*07 RESTRICTED PEPTIDES AND COMBINATION OF PEPTIDES AGAINST CANCERS AND RELATED METHODS” (Immatics Biotechnologies GmbH, priority 2018, published 2022).

This experiment concerns the target HLA-B*07 (Homo sapiens, UniProt P01889). Briefly: MHC binding assay (UV-ligand exchange, ELISA of stabilized MHC complexes). The note with it: peptide exchange yield on HLA-B*07, UV-ligand exchange. The gist of the method: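 Peptide–MHC complexes were made by UV-ligand exchange, in which a UV-cleavable peptide is replaced by the test peptide. Exchange yield was measured by ELISA of stabilized complexes on streptavidin-coated plates, using HRP anti-β2m detection (1 h, 37 °C), TMB substrate and absorbance at 450 nm.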
For the substance “252 (QPENSLEGISL; listed as Homo sapiens) [compound 252]”, the Peptide exchange result is on record as “+++ (>50 = +++)”. Under “253 (MPVDSFNSML; listed as Homo sapiens) [compound 253]” stands “++++ (>75% = ++++)”; under “254 (RVIQGTTTL; listed as Homo sapiens) [compound 254]”, “++++ (>75% = ++++)”; under “255 (VPSHWMVAL; listed as Homo sapiens) [compound 255]”, “++++ (>75% = ++++)”. Under “256 (SPVPSHWMVAL; listed as Homo sapiens) [compound 256]” stands “++++ (>75% = ++++)”; under “258 (SVIGPNSRL; listed as Homo sapiens) [compound 258]”, “++ (>20% = ++)”; under “259 (VPMPGVQAV; listed as Homo sapiens) [compound 259]”, “++++ (>75% = ++++)”. “260 (LVQSSRSEV; listed as Homo sapiens) [compound 260]”: the Peptide exchange result is “++++ (>75% = ++++)”. Under “261 (SPSTSRTPL; listed as Homo sapiens) [compound 261]” stands “+++ (>50 = +++)”; under “262 (SPSTSRTPLLSSL; listed as Homo sapiens) [compound 262]”, “++++ (>75% = ++++)”. Regarding “263 (SQRPPATSQA; listed as Homo sapiens) [compound 263]”, the Peptide exchange result is on record as “++ (>20% = ++)”.

As to “264 (APRPGNWIL; listed as Homo sapiens) [compound 264]”, the Peptide exchange entry is on record as “+++ (>50 = +++)”. Under “265 (FPRKPYEGRV; listed as Homo sapiens) [compound 265]” stands “+++ (>50 = +++)”. Consider “266 (KPYEGRVEI; listed as Homo sapiens) [compound 266]”, for which the Peptide exchange result is recorded as “++++ (>75% = ++++)”. Under “267 (MPVPGILL; listed as Homo sapiens) [compound 267]” stands “+++ (>50 = +++)”. As to “268 (EPLSVTASY; listed as Homo sapiens) [compound 268]”, the Peptide exchange entry was “++ (>20% = ++)”. To “269 (FTVSSSSAM; listed as Homo sapiens) [compound 269]” belongs “++ (>20% = ++)”; to “270 (SPRGTTSTL; listed as Homo sapiens) [compound 270]”, “+++ (>50 = +++)”; to “271 (SPTPVFTTL; listed as Homo sapiens) [compound 271]”, “+++ (>50 = +++)”. To “272 (SSPRGTTSTL; listed as Homo sapiens) [compound 272]” belongs “+++ (>50 = +++)”; to “273 (TDTPSTTPTTI; listed as Homo sapiens) [compound 273]”, “++ (>20% = ++)”; to “274 (KPIRTGISPLAL; listed as Homo sapiens) [compound 274]”, “+++ (>50 = +++)”. To “275 (IPAPQGAVL; listed as Homo sapiens) [compound 275]” belongs “+++ (>50 = +++)”. In the case of “276 (RPVWDVRSA; listed as Homo sapiens) [compound 276]”, the Peptide exchange entry is listed as “++++ (>75% = ++++)”.

Consider “277 (MPPLLIVAF; listed as Homo sapiens) [compound 277]”, for which the Peptide exchange entry was “++ (>20% = ++)”. Under “278 (LIAARGSLVL; listed as Homo sapiens) [compound 278]” stands “+++ (>50 = +++)”; under “279 (APADEPRTVL; listed as Homo sapiens) [compound 279]”, “+++ (>50 = +++)”. Under “280 (LPRAFLQSL; listed as Homo sapiens) [compound 280]” stands “++++ (>75% = ++++)”; under “281 (NPRSPPATM; listed as Homo sapiens) [compound 281]”, “++++ (>75% = ++++)”; under “282 (AVRLPTPNL; listed as Homo sapiens) [compound 282]”, “++++ (>75% = ++++)”. Under “283 (RPQPGWRESL; listed as Homo sapiens) [compound 283]” stands “++++ (>75% = ++++)”. For “284 (RPSAPRGPP; listed as Homo sapiens) [compound 284]”, the Peptide exchange entry is given as “++++ (>75% = ++++)”. To “285 (RITWKGLLL; listed as Homo sapiens) [compound 285]” belongs “+++ (>50 = +++)”; to “286 (APARPAAAF; listed as Homo sapiens) [compound 286]”, “++++ (>75% = ++++)”.

For the substance “287 (SPIPRPLFL; listed as Homo sapiens) [compound 287]”, the Peptide exchange entry is given as “++++ (>75% = ++++)”. Under “288 (LHAMNSLSAM; listed as Homo sapiens) [compound 288]” stands “+++ (>50 = +++)”; under “289 (LPYEKVSRL; listed as Homo sapiens) [compound 289]”, “+++ (>50 = +++)”; under “290 (RPTHPLRSF; listed as Homo sapiens) [compound 290]”, “++++ (>75% = ++++)”.

Regarding “291 (SPSKSLEM; listed as Homo sapiens) [compound 291]”, the Peptide exchange result is “+++ (>50 = +++)”. To “292 (LPMTHRLQL; listed as Homo sapiens) [compound 292]” belongs “+++ (>50 = +++)”; to “293 (FPYDKPLIM; listed as Homo sapiens) [compound 293]”, “++++ (>75% = ++++)”; to “294 (VPKPAIPSSSVL; listed as Homo sapiens) [compound 294]”, “++++ (>75% = ++++)”. Turning to “295 (HPRWIEPTVM; listed as Homo sapiens) [compound 295]”, the Peptide exchange result was “++++ (>75% = ++++)”. Under “296 (SPLLMQRTL; listed as Homo sapiens) [compound 296]” stands “++++ (>75% = ++++)”; under “298 (RVLLRWISL; listed as Homo sapiens) [compound 298]”, “+++ (>50 = +++)”; under “299 (SPFSGGPVSF; listed as Homo sapiens) [compound 299]”, “++++ (>75% = ++++)”. Regarding “300 (HPYSDLADVF; listed as Homo sapiens) [compound 300]”, the Peptide exchange entry is recorded as “+++ (>50 = +++)”.

In the case of “301 (FPAFLEAM; listed as Homo sapiens) [compound 301]”, the Peptide exchange result is “+++ (>50 = +++)”. Under “302 (IPIDQILNSF; listed as Homo sapiens) [compound 302]” stands “+++ (>50 = +++)”; under “303 (RPPPPCIAL; listed as Homo sapiens) [compound 303]”, “++++ (>75% = ++++)”. To “304 (SPLIGDFPAF; listed as Homo sapiens) [compound 304]” belongs “++ (>20% = ++)”; to “305 (AASPVGSAL; listed as Homo sapiens) [compound 305]”, “+++ (>50 = +++)”; to “306 (RPFPLALL; listed as Homo sapiens) [compound 306]”, “+++ (>50 = +++)”.
